According to patent US20040072266A1, “Method of modifying cell motility via compounds and polypeptides that interact with a Wnt pathway” (priority 2002, published 2004):

Test system: NIH3T3 cells
Test: Wnt conditioned media treatment of NIH3T3 cells, phalloidin actin staining, protrusion/filopodia count
Type: cell-based, mouse
Conditions: NIH3T3 cells on fibronectin treated cover slips, 15 minutes in conditioned media, Alexa568 phalloidin staining
Method: FIG. 1: Wnt treatment increases the protrusive activity of NIH3T3 cells. NIH3T3 cells were plated at low density on fibronectin treated cover slips. After being allowed to re-attach for 12 hours, cells were placed into media that was pre-conditioned either by control 293T cells (A), 293T cells expressing Wnt1 (B) or 293T cells expressing Wnt5a (C and D). After 15 minutes in conditioned media, cells were fixed and stained with Alexa568 conjugated phalloidin to label the actin cyto-skeleton. Wnt treated cells contained higher numbers of actin based protrusions relative to control. These included filopodia (arrows in B and C) as well as membrane ruffles (arrows in D). E. The number of filopodia per cell was counted for NIH3T3 cells treated as described above. […] Columns represent the average number of filopodia per cell. N=50, 80, 76 cells for control, Wnt1 and Wnt5a, respectively. Error bars represent the standard error of the mean for each group shown.
We can use Wnt conditioned media as a source of Wnt polypeptides and fragments of them in testing the ability of a cell to modify its cell motility characteristics. […]
In FIG. 1, we show the […] after the Wnt treatment. […] The degree of motility can be measured through the number of filopodia, for example, or through assyas that measure the levels or increases in cytoskeletal proteins. […]

Molecule | number of filopodia per cell relative to control
Wnt1: Wnt polypeptide supplied as media pre-conditioned by 293T cells expressing Wnt1 (mouse Wnt 1 per b63) (protein, UniProt P04426 28-370, looked up, conditioned medium from 293T cells) Proto-oncogene Wnt-1: ANSSGRWWGIVNIASSTNLLTDSKSLQLVLEPSLQLLSRKQRRLIRQNPGILHSVSGGLQSAVRECKWQFRNRRWNCPTAPGPHLFGKIVNRGCRETAFIFAITSAGVTHSVARSCSEGSIESCTCDYRRRGPGGPDWHWGGCSDNIDFGRLFGREFVDSGEKGRDLRFLMNLHNNEAGRTTVFSEMRQECKCHGMSGSCTVRTCWMRLPTLRAVGDVLRDRFDGASRVLYGNRGSNRASRAELLRLEPEDPAHKPPSPHDLVYFEKSPNFCTYSGRLGTAGTAGRACNSSSPALDGCELLCCGRGHRTRTQRVTERCNCTFHWCCHVSCRNCTHTRVLHECL | significant increase
Wnt5a: Wnt polypeptide supplied as media pre-conditioned by 293T cells expressing Wnt5a (mouse Wnt 5A per b63) (protein, UniProt P22725 62-380, looked up, conditioned medium from 293T cells) Protein Wnt-5a: IIGAQPLCSQLAGLSQGQKKLCHLYQDHMQYIGEGAKTGIKECQYQFRHRRWNCSTVDNTSVFGRVMQIGSRETAFTYAVSAAGVVNAMSRACREGELSTCGCSRAARPKDLPRDWLWGGCGDNIDYGYRFAKEFVDARERERIHAKGSYESARILMNLHNNEAGRRTVYNLADVACKCHGVSGSCSLKTCWLQLADFRKVGDALKEKYDSAAAMRLNSRGKLVQVNSRFNSPTTQDLVYIDPSPDYCVRNESTGSLGTQGRLCNKTSEGMDGCELMCCGRGYDQFKTVQTERCHCKFHWCCYVKCKKCTEIVDQFVCK | significant increase
